Measured values reported in the supplement of paper PMC10567573.

B1: ZNF8 (parent)
chain: RTHTGEKPYTCSVCGKSFSRTTCL
B2: INTS4 (parent)
chain: IRLVDDAFGKICHMVSDGSWVVRV

Variants of: B1
Assay: protein stability index of a GFP-peptide fusion (GPS, HEK-293T) (PSI 1-6); higher = more stable
Conditions: c terminus: a fixed tail appended
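Note: lentivirally expressed fusions sorted by FACS into six bins by GFP to DsRed ratio, PSI derived from sequencing read proportions per bin multiplied by bin number.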

Protein stability index: each site, then its substitutions
R20: L 2.01, V 2.02, N 2.76, F 2.15, W 2.47, E 3.14, P 2.75, H 3.75, M 2.18, C 5.54, Q 2.87, K 2.76, Y 2.91, S 2.17, I 1.75, G 3.17, A 2.55, D 3.46, T 2.77
T22: C 4.01, R 1.8, D 2.27, Y 1.98, S 1.82, Q 2.5, E 4.28, M 1.63, N 2.94, F 2.3, H 2.24, L 1.9, A 2.56, V 2.16, K 2.97, W 1.86, P 2.43, G 2.1
S17: M 2.03, A 2.48, L 2.34, H 2.69, I 2.17, R 2.77, F 1.48, K 2.87, C 3.72, V 2.67, T 2.63, Q 2.58, N 2.36, W 1.82, P 3.07, G 1.73, D 2.55, Y 2.14, E 2.4
C14: P 2.82, A 2.17, W 1.42, N 2.87, T 2.46, Y 2.06, E 2.46, Q 2.17, R 2.19, F 2.1, D 2.77, I 2.34, K 3.06, G 1.99, M 2.88, L 2.76, H 2.89, S 2.41, V 3.13
G15: P 2.57, E 2.15, A 1.88, N 1.92, W 1.43, C 1.83, K 2.25, H 1.81, D 2.36, M 1.6, I 1.46, S 1.87, Q 1.75, R 2.17, V 1.73, L 1.99, Y 1.32, T 1.65, F 2.28
V13: S 2.56, D 2.46, G 2, I 2.09, W 1.65, F 2.48, R 1.99, Y 2.43, Q 1.28, T 1.89, P 1.97, E 2.47, L 2.23, K 2.61, H 2.61, C 3.54, N 2.26, M 2.14, A 2.26
F18: L 3.4, S 2.73, C 3.45, K 2.5, Y 2.23, M 1.89, D 2.92, N 2.53, H 4.78, R 2.56, G 2.84, T 2.48, E 3.37, Q 2.39, I 1.54, V 2.5, P 2.01, W 2.43
C23: F 2.11, H 2.26, V 1.59, R 1.84, G 2.43, P 2.63, A 2.21, T 2.1, L 1.93, Q 2.24, W 1.78, D 2.46, K 2.28, M 2.19, S 2.03, Y 2.57, E 3
P8: D 2.78, H 2.63, C 2.81, E 2.95, L 3.12, M 2.62, Q 3.05, S 2.17, V 2.59, Y 2.95, F 2.25, T 2.86, R 2.46, A 3.27, K 2.04, W 2.9, N 2.93, I 3.05, G 2.9
L24: W 2.8, I 2.8, V 3.06, N 3.03, H 3.46, K 2.76, F 2.06, A 2.56, Q 2.96, R 2.73, P 3.17, E 3.28, D 3.21, S 2.06, M 2.87, Y 2.48, T 3.08, C 4.72
K16: L 2.09, I 1.74, E 2.61, P 1.81, M 2.2, A 1.85, G 2.41, H 1.99, D 2.08, N 2.58, T 1.94, F 1.77, S 1.75, V 1.96, W 1.84, Y 1.87, R 2.45, Q 2.6, C 2.16
S12: H 2.41, M 2.34, C 2.13, E 2.72, P 2.7, R 2.21, W 2.17, D 2.59, Q 2.33, N 2.24, Y 2.27, A 2.96, T 2.52, I 2.11, F 2.05, L 2.22, K 2.13, G 2.02, V 2.21
S19: L 2.51, Q 2.65, F 2.64, G 2.35, R 3.8, H 2.59, E 2.67, M 2.5, T 2.41, K 2.45, A 1.36, N 2.67, C 3.7, W 2.42, V 3.91, D 2.79, P 2.26, Y 2.33, I 2.07
K7: W 2.31, V 2.44, S 2.47, R 2.49, T 2.49, Q 2.08, P 2.96, N 2.42, Y 2.36
T10: C 2.83, I 2.65, G 2.21, W 1.75, M 2.19, K 2.15, Q 2.6, H 2.75, E 2.39, L 2.05, F 1.89, D 2.43, Y 1.98, A 2.06, R 2.51, P 2.27, N 2.2, S 2.36, V 2.72
Y9: R 2.29, S 2.62, L 2.39, Q 2.31, T 2.59, E 2.95, G 2.5, W 2.42, P 2.4, F 2.32, A 2.3, I 2.59, K 2.08, M 2.23, V 2.65, H 2.11, D 2.78, N 2.51, C 3.77
C11: I 2.01, R 2.39, Q 3.18, K 2.25, H 1.99, L 2.43, M 3.35, W 1.82, Y 1.86, N 2.79, F 2.23, T 2.39, V 2.24, E 2.48, P 2.56, S 2.52, D 2.83, A 2.88, G 2.33
T21: N 1.99, A 2.7, H 3.29, D 3.37, V 2.36, M 2.39, P 2.58, G 3.27, E 2.67, Q 2.49, F 1.71, I 2.15, C 5.19, S 2.16, W 1.72, Y 2.32, L 2.83, K 2.4, R 2.39

Variants of: B2
Assay: as above
Conditions: c terminus: a fixed tail appended

Protein stability index, by site and new letter:
I1: M 3.29, C 2.39, F 4.01, A 2.67, H 3.54, K 3.49, E 2.77
